Measured values from US20190284544.

Legend:
[1] = system: homologous regions of other CAPN members
[2] = system: CAPN5-370-380 peptide (RQNRGGGCINH)
[3] = biological target: CAPN5p.372-378 peptide (UniProt O15484)
[4] = system: CAPN5-370-390 peptide
[5] = system: EPLFAERK peptide
[6] = system: Cyclic CAPN5 p.370-80
[7] = system: CAPN14 peptide
[8] = system: PDGFB (155-170) peptide
[9] = system: Pep-1-Mod
[10] = system: Pep-2-Mod
Chain of Pep-2-Mod (chain, as listed by the source): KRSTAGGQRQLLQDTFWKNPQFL

Chain of CAPN5-R243L (chain, as listed by the source R243L): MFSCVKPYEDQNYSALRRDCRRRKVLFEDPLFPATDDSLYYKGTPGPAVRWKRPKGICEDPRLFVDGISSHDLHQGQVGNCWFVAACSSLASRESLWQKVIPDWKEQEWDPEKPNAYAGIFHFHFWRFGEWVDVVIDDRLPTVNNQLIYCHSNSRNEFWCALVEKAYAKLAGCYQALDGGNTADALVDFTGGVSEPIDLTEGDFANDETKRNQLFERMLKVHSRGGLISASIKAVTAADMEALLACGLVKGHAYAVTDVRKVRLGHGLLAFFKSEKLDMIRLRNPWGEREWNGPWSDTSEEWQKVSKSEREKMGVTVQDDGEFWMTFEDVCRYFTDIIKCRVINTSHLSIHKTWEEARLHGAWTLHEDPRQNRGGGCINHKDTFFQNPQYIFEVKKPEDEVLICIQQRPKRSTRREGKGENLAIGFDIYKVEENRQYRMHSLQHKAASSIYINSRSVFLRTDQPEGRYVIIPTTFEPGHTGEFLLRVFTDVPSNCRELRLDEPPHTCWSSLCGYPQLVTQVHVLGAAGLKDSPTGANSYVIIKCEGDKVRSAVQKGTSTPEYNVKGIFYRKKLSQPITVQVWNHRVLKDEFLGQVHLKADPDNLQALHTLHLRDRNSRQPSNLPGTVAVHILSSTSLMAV
Chain of CAPN5-370-390 peptide (chain, as listed by the source): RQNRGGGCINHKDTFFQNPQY
Chain of CAPN14 peptide (chain, as listed by the source): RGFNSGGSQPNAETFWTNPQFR
Chain of Pep-1-Mod (chain, as listed by the source): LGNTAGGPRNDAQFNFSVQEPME
Chain of CAPN1 WT (P07384 2-714): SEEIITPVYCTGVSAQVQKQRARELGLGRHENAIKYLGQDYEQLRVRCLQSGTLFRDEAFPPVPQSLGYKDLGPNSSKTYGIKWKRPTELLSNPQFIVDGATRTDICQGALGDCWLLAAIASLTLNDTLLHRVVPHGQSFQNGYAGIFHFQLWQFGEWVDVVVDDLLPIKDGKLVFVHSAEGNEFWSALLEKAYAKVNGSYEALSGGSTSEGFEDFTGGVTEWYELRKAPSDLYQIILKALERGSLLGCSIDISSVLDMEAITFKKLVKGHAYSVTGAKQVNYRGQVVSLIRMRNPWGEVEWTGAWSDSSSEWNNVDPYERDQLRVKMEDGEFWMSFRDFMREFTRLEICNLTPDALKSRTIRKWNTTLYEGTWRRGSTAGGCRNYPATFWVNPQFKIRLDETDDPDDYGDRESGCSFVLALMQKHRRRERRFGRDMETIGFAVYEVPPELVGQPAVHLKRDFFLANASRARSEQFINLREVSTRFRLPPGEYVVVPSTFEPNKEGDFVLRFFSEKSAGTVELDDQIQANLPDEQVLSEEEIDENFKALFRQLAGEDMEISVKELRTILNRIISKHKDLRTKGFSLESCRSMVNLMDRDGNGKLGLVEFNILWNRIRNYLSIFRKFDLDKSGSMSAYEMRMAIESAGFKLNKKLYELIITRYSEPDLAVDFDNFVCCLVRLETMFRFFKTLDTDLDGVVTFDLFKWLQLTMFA

CAPN1 WT
proteolysis [1]: CAPN1 does not appear to proteolyze these regions

CAPN5 WT (Homo sapiens calpain 5)
cleavage (change in fluorescence) [2]: the CAPN5-370-380 fragment was the most sensitive to cleavage by both WT and R243L CAPN5 | cleavage (fluorescence) [2]: rapid and high cleavage of the 11 aa peptide | fluorescent intensity (FRET substrate proteolysis) [2]: CAPN5-WT proteolyzes the substrate, CAPN5 (p370-380), at a higher rate than other peptides | proteolysis (fluorescence) [2]: The peptide shows high proteolysis when incubated with CAPN5-WT | cleavage (fluorescence) [3]: There was mild cleavage of the 7 aa peptide was observed | cleavage (fluorescence) [4]: The 21 aa peptide was cleaved slower and does not show cleavage substrate inhibition | proteolysis [5]: it is not proteolyzed by CAPN5 | proteolysis (fluorescence) [5]: very limited proteolysis when incubated with CAPN5-WT | initial reaction rate (proteolysis of CAPN5p.370-80 by CAPN5 WT) [6]: Addition of 10 µM Cyclic CAPN5 p.370-80 slows the initial reaction rate by 40% | initial velocity versus substrate concentration, with and without 10 µM cyclic peptide [6]: Increasing concentrations of substrate does not overcome inhibition by cyclic peptide | proteolysis [7]: there was some proteolysis of the CAPN14 peptide | proteolysis [1]: CAPN5 did not proteolyze homologous regions of other CAPN members as well as it proteolyzed its own site

CAPN5-R243L
fluorescent intensity (FRET substrate proteolysis) [8]: the greatest fluorescent intensity is detected with substrates CAPN5 (p370-390), CAPN5 (370-380), and PDGFB (155-170) | cleavage (change in fluorescence) [2]: the CAPN5-370-380 fragment was the most sensitive to cleavage by both WT and R243L CAPN5 | fluorescent intensity (FRET substrate proteolysis) [2]: the greatest fluorescent intensity is detected with substrates CAPN5 (p370-390), CAPN5 (370-380), and PDGFB (155-170) | fluorescent intensity (FRET substrate proteolysis) [4]: the greatest fluorescent intensity is detected with substrates CAPN5 (p370-390), CAPN5 (370-380), and PDGFB (155-170)

MBP-CAPN5 WT
reaction rate (initial velocity of proteolysis) [9]: Modification of the amino acids slows the reaction rate | reaction rate (initial velocity of proteolysis) [10]: Modification of the amino acids slows the reaction rate
